Test results published in patent US20210040201A1 (Innovent, published 2021).
Changes are numbered by the printed parent chain. Like-named read-outs stand apart in the source and are kept apart here.

T1: Human TIGIT expressed on the surface of cells (human, UniProt Q495A1 22-244)
T1 construct: also called human TIGIT expressed on the surface of CHO cells; human TIGIT overexpressed on CHO cells
T1 sequence: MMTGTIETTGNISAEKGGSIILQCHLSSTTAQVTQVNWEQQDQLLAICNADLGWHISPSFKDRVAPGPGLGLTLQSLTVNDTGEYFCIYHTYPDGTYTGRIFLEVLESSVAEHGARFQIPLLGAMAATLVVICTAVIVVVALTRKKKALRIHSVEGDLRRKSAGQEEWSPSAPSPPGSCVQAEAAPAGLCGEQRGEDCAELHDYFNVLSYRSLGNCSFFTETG

T2: Human TIGIT-his (ACRO, TIT-H52H3) (human, UniProt Q495A1 22-141)
T2 construct: Bought protein
T2 sequence: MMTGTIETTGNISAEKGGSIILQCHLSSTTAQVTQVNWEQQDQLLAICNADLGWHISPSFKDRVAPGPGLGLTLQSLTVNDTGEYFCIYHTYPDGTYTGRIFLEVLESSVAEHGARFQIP

T3: Mouse TIGIT-his (ACRO, TIT-M52E6) (mouse, UniProt P86176 26-143, limits assumed)
T3 construct: Bought protein
T3 sequence (looked up): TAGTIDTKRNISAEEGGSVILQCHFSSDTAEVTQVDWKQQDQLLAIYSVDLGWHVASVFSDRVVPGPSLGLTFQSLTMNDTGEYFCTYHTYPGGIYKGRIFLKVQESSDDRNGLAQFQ

B1: 10A7 (anti-human TIGIT reference antibody from Genentech) (antibody, V domains shown)
VH: EVQLVESGGGLTQPGKSLKLSCEASGFTFSSFTMHWVRQSPGKGLEWVAFIRSGSGIVFYADAVRGRFTISRDNAKNLLFLQMNDLKSEDTAMYYCARRPLGHNTFDSWGQGTLVTVSS
VL: DIVMTQSPSSLAVSPGEKVTMTCKSSQSLYYSGVKENLLAWYQQKPGQSPKLLIYYASIRFTGVPDRFTGSGSGTDYTLTITSVQAEDMGQYFCQQGINNPLTFGDGTKLEIKR
B2: 22G2 (anti-human TIGIT reference antibody from BMS) (antibody, V domains shown)
VH: QVHLQESGPGLVKPSETLSLTCTVSGGSVSSGIYYWSWIRQPPGKGLEWIGYIYYSGSTNYNPSLKSRVTISVDTSKNQFSLKLSSVTAADTAVYYCARDYYVSGNYYNVDYYFFGVDVWGQGTTVTVSS
VL: EIVLTQSPATLSLSPGERATLSCRASQSVSSYLAWYQQKPGQAPRLLIYDASNRATGIPARFSGSGSGTDFTLTISSLEPEDFAVYYCQQRSNWPPLFTFGPGTKVDIK
B3: ADI-27243 (antibody, human IgG4 S228P, kappa, F234A L235A, V domains shown)
VH: QLQLQESGPGLVKPSETLSLTCTVSGGSISSSRYYWGWIRQPPGKGLEWIGSIYYSGSTYYNPSLKSRVTISVDTSKNQFSLKLSSVTAADTAVYYCARDGLYHTPEYFQHWGQGTLVTVSS
VL: EIVLTQSPATLSLSPGERATLSCRASQSVSSYLAWYQQKPGQAPRLLIYDASNRATGIPARFSGSGSGTDFTLTISSLEPEDFAVYYCQQRFAFPYTFGGGTKVEIKR
B4: ADI-30336 (antibody, human IgG4 S228P, kappa, F234A L235A, V domains shown)
VH: B3 VH
VL: B3 VL with F94H
notes: Intact antibody, expressed in yeast and also in CHO cells (the assay field says which)
B5: ADI-30302 (antibody, human IgG4 S228P, kappa, F234A L235A, V domains shown)
VH: B3 VH with S30G, R33Q, Y55R, S58G
VL: B3 VL
B6: ADI-30293 (antibody, human IgG4 S228P, kappa, F234A L235A, V domains shown)
VH: EVQLVESGGGLVQPGGSLRLSCAASGFTFSSYSMNWVRQAPGKGLEWVSYISSSGTINYADSVKGRFTISRDNAKNSLYLQMNSLRAEDTAVYYCARHRIADSPSRAFDIWGQGTMVTVSS
VL: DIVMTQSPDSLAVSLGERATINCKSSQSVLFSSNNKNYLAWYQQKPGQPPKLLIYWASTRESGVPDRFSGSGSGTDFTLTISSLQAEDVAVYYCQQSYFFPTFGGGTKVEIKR
B7: ADI-30296 (antibody, human IgG4 S228P, kappa, F234A L235A, V domains shown)
VH: B6 VH with F29I, S30G, S31G, G55S, N58H, A101G, D102R
VL: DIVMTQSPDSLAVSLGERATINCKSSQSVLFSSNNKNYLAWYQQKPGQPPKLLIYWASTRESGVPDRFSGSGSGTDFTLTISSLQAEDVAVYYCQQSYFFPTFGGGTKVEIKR
B8: ADI-30306 (antibody, human IgG4 S228P, kappa, F234A L235A, V domains shown)
VH: QLQLQESGPGLVKPSETLSLTCTVSGGSISSSLYYWGWIRQPPGKGLEWIGSIYYSGSTFYNPSFKSRVTISVDTSKNQFSLKLSSVTAADTAVYYCAREAGRGTTGLLFDYWGQGTLVTVSS
VL: DIQMTQSPSTLSASVGDRVTITCRASQSISSWLAWYQQKPGKAPKLLIYKASSLESGVPSRFSGSGSGTEFTLTISSLQPDDFATYYCQQYGILPRTFGGGTKVEIKR
notes: as for B4
B9: ADI-30311 (antibody, human IgG4 S228P, kappa, F234A L235A, V domains shown)
VH: B8 VH with S30A, L33V, F60W, F65L, G104T, T105G
VL: B8 VL
B10: ADI-30286 (antibody, human IgG4 S228P, kappa, F234A L235A, V domains shown)
VH: EVQLLESGGGLVQPGGSLRLSCAASGFTFGPYGMSWVRQAPGKGLEWVSAISGSGASTWYADSVKGRFTISRDNSKNTLYLQMNSLRAEDTAVYYCAKDPGTHYSGYYYIWRYWGQGTLVTVSS
VL: EIVMTQSPATLSVSPGERATLSCRASQSVSSNLAWYQQKPGQAPRLLIYSASTRATGIPARFSGSGSGTEFTLTISSLQSEDFAVYYCQQYVPHPPFTFGGGTKVEIKR
B11: ADI-30288 (antibody, human IgG4 S228P, kappa, F234A L235A, V domains shown)
VH: B10 VH with Y60H, H103D, Y104S, S105T
VL: B10 VL
B12: ADI-30272 (antibody, human IgG4 S228P, kappa, F234A L235A, V domains shown)
VH: QVQLVQSGAEVKKPGASVKVSCKASGYTFTEYYMHWVRQAPGQGLEWMGIISPSAGSTSYAQKFQGRVTMTRDTSTSTVYMELSSLRSEDTAVYYCARDHDIAAAGRLADYWGQGTLVTVSS
VL: DIQMTQSPSSVSASVGDRVTITCRASQGISSWLAWYQQKPGKAPKLLISAASSLQSGVPSRFSGSGSGTDFTLTISSLQPEDFATYYCQQAVILPITFGGGTKVEIKR
B13: ADI-27297 (antibody, human IgG4 S228P, kappa, F234A L235A, V domains shown)
VH: B12 VH with E31S, S52N, A55G
VL: B12 VL
B14: ADI-30278 (antibody, human IgG4 S228P, kappa, F234A L235A, V domains shown)
VH: B12 VH with S59K, A103R, A104L
VL: B12 VL
notes: as for B4
B15: ADI-27238 (antibody, human IgG4 S228P, kappa, F234A L235A, V domains shown)
VH: QVQLVQSGAEVKKPGASVKVSCKASGYTFTSYYMSWVRQAPGQGLEWMGIINPSGGSTSYAQKFQGRVTMTRDTSTSTVYMELSSLRSEDTAVYYCARARYPSSWPYGMDVWGQGTTVTVSS
VL: DIQMTQSPSSLSASVGDRVTITCRASQSINSYLNWYQQKPGKAPKLLIYAASSLQSGVPSRFSGSGSGTDFTLTISSLQPEDFATYYCQQSLLTPFTFGGGTKVEIKR
B16: ADI-30268 (antibody, human IgG4 S228P, kappa, F234A L235A, V domains shown)
VH: B15 VH with T30G, S35G, N52D, S57R, Q62R, Y101T
VL: B15 VL
B17: ADI-30267 (antibody, human IgG4 S228P, kappa, F234A L235A, V domains shown)
VH: B15 VH with T30R, N52D, S57R, Y60F, S103E
VL: B15 VL

What was measured:
[1] = target: T1, Human TIGIT expressed on the surface of …; test: flow cytometry competition against 50 nM human CD155-mouse IgG2a Fc on CHOS cells expressing human TIGIT; positive control
[2] = target: T1, Human TIGIT expressed on the surface of …; test: as above; remark: listed apart in the source
[3] = target: T1, Human TIGIT expressed on the surface of …; test: cell-based or functional assay
[4] = target: T1, Human TIGIT expressed on the surface of …; test: flow cytometry on CHO cells overexpressing human TIGIT; reference antibody in the run with CHO-expressed antibodies
[5] = target: T1, Human TIGIT expressed on the surface of …; test: flow cytometry on CHOS cells expressing human TIGIT; reference antibody
[6] = target: T4, Monkey TIGIT-his (ACRO, TIT-05223) (monkey); test: BLI (ForteBio), antibody loaded on AHQ sensor, 100 nM TIGIT-his, 1:1 model, monovalent
T4 construct: Bought protein

[7] = target: T2, Human TIGIT-his (ACRO, TIT-H52H3); test: as above
[8] = target: T1, Human TIGIT expressed on the surface of …; test: cell-based or functional assay; remark: listed apart in the source
[9] = target: T3, Mouse TIGIT-his (ACRO, TIT-M52E6); test: BLI (ForteBio), CHO-expressed antibody loaded on AHQ sensor
Procedure: The sensor with loaded antibodies was exposed to 100 nM TIGIT-his antigens until to a plateau, and then transferred to an assay buffer for dissociation for at least 2 min to measure the dissociation rate. Kinetic analysis was performed using a 1:1 binding model.

Row | EC50, MOA-based assay (luciferase reporter under IL2 promoter), yeast-expressed antibody [3] | EC50, MOA-based assay (luciferase reporter under IL2 promoter), CHO-expressed antibody [8] | also measured | Binder
1 |  |  | IC50 [1]: 0.325 nM; IC50 [2]: 0.741 nM; EC50, MOA-based assay (luciferase reporter under IL2 promoter) [3]: ~77.8 nM; EC50 [4]: 0.195 nM; EC50 [5]: 0.269 nM | B1
2 |  |  | IC50 [1]: 0.607 nM; IC50 [2]: 0.179 nM; Kd [6]: 4.2 nM; Kd [7]: 3.5 nM; EC50, MOA-based assay (luciferase reporter under IL2 promoter) [3]: 2.11 nM; EC50 [4]: 0.725 nM; EC50 [5]: 0.511 nM | B2
3 | 297 nM |  |  | B3
4 | 3.33 nM | 1.27 nM | binding result [9]: no binding (tested: 100 nM TIGIT-his) | B4
5 | 0.983 nM |  |  | B5
6 | 1.56 nM | 1.62 nM |  | B6
7 | 1.09 nM |  |  | B7
8 |  |  | binding result [9]: no binding (tested: 100 nM TIGIT-his) | B8
9 | 1.82 nM |  |  | B9
10 |  | 0.396 nM |  | B10
11 |  | 0.384 nM |  | B11
12 | 1.49 nM |  |  | B12
13 | ~25100 nM |  |  | B13
14 | 0.523 nM | 0.186 nM | binding result [9]: no binding (tested: 100 nM TIGIT-his) | B14
15 | 68.7 nM |  |  | B15
16 | 1.22 nM | 0.506 nM |  | B16
17 | 2.06 nM |  |  | B17
